The data set “crystal structure” concerns the molecule itself. In words: crystal structure.
A further data set addresses T1, FLI1 DBD (259-399) (UniProt Q01543 259-399).
T1 sequence: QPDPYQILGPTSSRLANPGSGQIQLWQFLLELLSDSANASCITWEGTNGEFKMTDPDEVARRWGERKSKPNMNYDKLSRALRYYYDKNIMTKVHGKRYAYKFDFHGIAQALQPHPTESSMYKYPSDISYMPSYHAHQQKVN
In words: fluorescence anisotropy. Background: In fluorescence polarisation assays a small probe gives low polarisation when free and higher when bound to something large.

The next data set concerns the target T2, FLI1 DBD (276-375) (UniProt Q01543 276-375).
T2 sequence: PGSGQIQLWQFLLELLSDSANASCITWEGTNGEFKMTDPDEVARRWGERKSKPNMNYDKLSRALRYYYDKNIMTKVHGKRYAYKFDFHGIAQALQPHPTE
In words: X-ray crystallography.

Data set [1] concerns the target T3, 15N-labeled FLI1 DBD (NMR) (UniProt Q01543 259-399).
T3 sequence: T1 sequence
In words: NMR.

B1: DNA binding domain of FLI1 (residues 276-375) (domain or fragment)
chain: T2 sequence
Regarding B1, the binding result in “crystal structure” was “binds”.

B2: AA(GGAA)6 (dsDNA)
DNA 1: AAGGAAGGAAGGAAGGAAGGAAGGAA
DNA 2: TTCCTTCCTTCCTTCCTTCCTTCCTT
On to B2, for which the binding result in the data set with FLI1 DBD (259-399) was “binds”.

B3: 11-mer GACCGGAAGTG (dsDNA)
DNA 1: GACCGGAAGTG
DNA 2: CACTTCCGGTC
As to B3, the binding result with FLI1 DBD (276-375) is given as “binds”.

B4: 12-mer TTGAAGGAAGAG (dsDNA)
DNA 1: TTGAAGGAAGAG
DNA 2: CTCTTCCTTCAA
As to B4, in data set [1], the binding result is listed as “binds”.

(Values after article PMC5063001 (Nucleic Acids Research, 2016).)
